In paper PMC3168705 (The FEBS journal, 2011):

Target: McTnI_(29–211), mouse cardiac TnI with the NH2-terminal extension removed (mouse, UniProt P48787 29-211)
Experiment: ELISA

Sequence of McTnI_(29–211), mouse cardiac TnI with the NH2-terminal extension removed (P48787 29-211): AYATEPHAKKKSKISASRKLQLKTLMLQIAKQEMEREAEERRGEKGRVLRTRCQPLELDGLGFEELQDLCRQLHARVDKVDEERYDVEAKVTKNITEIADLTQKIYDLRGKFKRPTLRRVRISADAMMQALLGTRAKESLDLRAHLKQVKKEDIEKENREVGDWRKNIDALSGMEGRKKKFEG

- binding result: binds
B1: chicken fast TnC (natural protein)
chain: not shown
